The data set can be described thus: soluble on expression in E. coli; label from the status in PepcDB or PDB records.
With “MSLKLVKLETFSTEFVCFVRATAEDGAQGWGQVAPYYADITAQVLHRQVAPYALGMACEDIDAMLDIVRDREHKFPGSYLRRAMGGVDTALWDMHGRRAGKPVCVLIGGTPGPVRAYGSSMKRDITPRDEAARLVRLRDEQGFDAFKFRIGAEVGRDRDEWPGRTEEIVPTMRRAMGDDVALLVDANSCYSPARAIEVGRMLEQHGISHYEEPCPYWEFAQTKEVTDTLDLDITGGEQDCLMERWQTMIADRVVDVLQPDICYLGGLSRTLRVARMAEAAGMPITPHAANLSMVTLFTMHLLRAIPNAGKYLEFSIEGLDYYPWQQGLFTSDPYRIEEGHATVTDAPGWGVDVNPDWLARSEGHHHHHH”, the “soluble on expression in E. coli” value was “not soluble”. The entry for “MSLKNFVVKDIGIPKYIENMVGKGDFYLLNKRKLNSHKGQNGKVLIIGGSKEYHGAPVFSGLAASKFADIVTVASVSNVIGTVRNYPELMPYELNGEYIGQKNTDELLKLSKNYDCTVLGSGLSLNSSTKEFVNSYLNETNGKVVIDADAIKLIDYGNFEFKNNFIFTPHKKEFEYMKDYVKKYAKNQGFNSTVVLKGSIDIVFDPDNIKMNITGNQGMTAGGTGDILCGIIGAICACNDAFPSACCGTYINGYCGDLLEKEYGYYYNSTDIIKILPKALKELLYEGHHHHHH” is “soluble”; for “MSLKPRIAIVGLGLIGGSLARRLVNAGCEVTAWNHNDRPYATAEADGIICKPTLAALAETKPNVLVLCNPLKAMPEILGALKPLIDTETTTLTDVGSVKGMVRDQVKAIGLDGCYVGAHPMAGNELSGWEASDPTLYDDALWAITVDEHTEYRRFRAVADMIVNRCGNRLIVLDDATHDRCAALISHMPHVIATAMINELVANPNRNIAAALAAGSWRDMTRVALTDPNRTRAMVEEDAANVETLLRNMANRLTLVANVLHDMADTGVRPTEGDVKQMDRFFAQGQPFRDYKAASRQPEYAEHCATVELSIPENDWQRTLLESARRGEHIVRFDGERTAIAQARSVEGHHHHHH” it is “soluble”; for “MSLKPRVAVIGSGSIGLLLYAYLKLANWPALLVTNRPEQADHLNKEGLTFVAKSGEHQPISVTATPLSSFSAEEAEVGFITVKSFAVKALLPQLQRKKWDGLVFFQNGMTHLEILRQIPARAICCGIVEIGAKRESDVRVQHTGDGAIWIGDMVGDSKNFDPMWACLHNAGLKAQKVTNWQDKMERKLIANAAINPLTGLFRVKNGALIENQLFSLLLKELVKEACVTLGREREVDEHLAYTRAICDKTANNLSSMYMDLTHHRRTEIESITGYLIKEAAKKGIEIPNTSFVYHAVMGMDEEGRKVREGHHHHHH” it is “soluble”. The entry for “MSLKQEKERILKLVEEGKLTAQEALTLIEKLDSDYKEKEEKITALSVHVHDEEEPFTTAKKESGKPSLGAKLFDWIDSAVKKVKEVDLDLNFGHAYDVQHIFQFKDTDFSSVELQIANGSVNIVPWEDDDIRAECQAKVYRADSQDAARHAFLQHIECEIKGNKFFIRTEKKTMKTNVTLYIPQKEYDKIRVKLFNGPVRGEHLHVKEFSAKTTNGVLSFSYLTAEKAIAETANGQIKLASHSCGTIEAETINGLIDLRGKSESIDVQSFNGNIAINVTESDCRSIYAKTTTGNVELAIPDDLAVKAELKSNLGTLSHELMDVEMLKEKNDTIQKEMMFTSNQAHDQNITVFSESLTGAIKLKYSQREGGSHHHHHH” is “soluble”; for “MSLKQFKSIINTSQDFEKRIEKIKKEVINDPDVKQFLEAHRAELTNAMIDEDLNVLQEYKDQQKHYDGHKFADCPNFVKGHVPELYVDNNRIKIRYLQCPCKIKYDEERFEAELITSHHMQRDTLNAKLKDIYMNHRDRLDVAMAADDICTAITNGEQVKGLYLYGPFGTGKSFILGAIANQLKSKKVRSTIIYLPEFIRTLKGGFKDGSFEKKLHRVREANILMLDDIGAEEVTPWVRDEVIGPLLHYRMVHELPTFFSSNFDYSELEHHLAMTRDGEEKTKAARIIERVKSLSTPYFLSGENFRNNEGHHHHHH” it is “soluble”; for “MSLKQKSVPMRHGTIYLYGLHSVHAALKNPKRVFEHLYITPNALKRLNIPESDLPCPITLCLPKQLDSFVGNDAVHQGIVLETEPLKPCQLSELTNTDLVIVMDQITDPHNVGAIMRSAVAFKAEALITTYRHSPQESGVLAKAASGALEMIHYITVQNLAETLQELHKAGFISFGLDSEGNHPLETTLTGEKIALVLGAEGKGLRKKTRENVCALTRLDMPGNIKSLNVSNAATIALYAAHKYLRGEGHHHHHH” it is “soluble”. As for “MSLKQYKILLIVADGLGDRPVSKLNGLTPLEAANKPAITDLLKNSMIGLMDPISPGIIPGSDTSHLSIFGLDPHVYYRGRGAFEALGAGATLSHGDVAFRGNFATVNNDLVVVDRRAGRKLEEGEQLVKELNEKIKEINDVKIKFYKGTEHRIAVVLSGKGISDKVSDTDPHHEGLKVLESKPLEDSNEAIRTAEIINILTRKVFDVLNSSEINKRRIEQGEKPANIVLLRGAAHYVKLPPFSSYTKLKAAAVSATALIKGICRELGMNVITPSGATGGIDTNYNAKAKAAIELLKENDFVFLHIKATDAASHDGLVEEKVKAIERIDRVIGAIIDNIGRDNLILMFTGDHVTPVEIKEHTGDPVPVLLYVPYPIINDNVGDFNEKEARKGSLRIRGLDVTNILLNYSNRAEKYGSEGHHHHHH”, the entry is “soluble”; as for “MSLKRIAIILLTLTSILFVQHVPEGLAKASNELSLEEKYEQRLTLYEKMEAITNVPWYYLAAVDTYERGLRRAQKDRPAEEGLIAIYFSPQQWVGPLNPDLEDTNPLSISMFNGVGLDGNGDGVADRNNDEDVLYTFARYLESYGFKEEDFRIALWEYYQREQSVNIIYGHANVYKTFKTLDLDDHTFPLPLHHNYSYRSTWGDRRGWGGRRIHEGTDIFANYNVPVMATAYGIVEIKGWNKYGGWRIGVRDLDNVYHYYAHLSGFEKGVEKGTVVAPGDVIGYVGSSGYGKPGTQGKFPPHLHYGMYRDNGYTEWSFDPYPSLKSWERKAYQERKKKKEGHHHHHH”, “soluble”. “MSLKRRQTNIIGVYLADYGGSFYGELLEGIKKGLALFDYEMIVCSGKKSHLFIPEKMVDGAIILDWTFPTKEIEKFAERGHSIVVLDRTTEHRNIRQVLLDNRGGATQAIEQFVNVGSKKVLLLSGPEKGYDSQERLAVSTRELTRFGIPYEIIQGDFTEPSGYAAAKKILSQPQTEPVDVFAFNDEMAIGVYKYVAETNYQMGKDIRIIGFDNSELGAFVQPRLATIAYSKHRWGMVAAEKIIHLMRGEAAESEHIYTRFIEGESFPSEGHHHHHH”: the “soluble on expression in E. coli” value is “soluble”. The entry for “MSLKRSEFPENELWDLTALYKDRQDFLLAIEKALEDIKVFKKNYEGKLNCVEDFTSALMEIEHIYIQMSHIDTYAFMPQTTDFSNEEFAQISQAGSDFATKANVLLSFFNTALANADIKILDSLENNPHFKATIRQAKIQKQHLLSPEVEKALTNLNEVLNTPYDIYTKMRAGDFDMEDFEVDGKTYKNSFVTYENYFQNHENAEIREKSFRSFSKGLRKHQNAAAAAYLAKVKSEKLIADMRGYDSVFDYLLSEQEVDRSMFDRQIDLIMDEFGPVAQRFLKHIADVNGIEKMTFADWKLDIDNELNPEVSINDAYDLVMKSVAPLGKEYSQEVERYQKERWVDFAANANKDSGGYAADPYKVHPYVLMSWTGRMSDVYTLIHEIGHSGQFIFSDNHQSFFNTHMSTYYVEAPSTFNELLLSDYLENQFDTARQKRFALAHRLTDTYFHNFITHLLEAAFQRKVYTLIEEGGTFGAEQLNAIMKEVLTQFWGDAIEIDDDAALTWMRQAHYYMGLYSYTYSAGLVISTAGYLNLKNNPNGAKEWLAFLKSGGSRTPLETALLISADISTDKPLRDTINFLSNTVDQIINYSNLIEQEGHHHHHH” is “soluble”; for “MSLKSALRLYNRASFKASHKVIEEYSTSFSLSTWLLSPRIRNDIRNLYAVVRIADEIVDGTAHAAGCSTAKIEEILDAYEIAVLAAPQQRFNTDLVLQAYGETARRCDFEQEHVIAFFASMRKDLKANTHDPDSFTTYVYGSAEVIGLLCLSVFNQGRTISKKRLEIMQNGARSLGAAFQKINFLRDLAEDQQNLGRFYFPKTSQGTLTKEQKEDLIADIRQDLAIAHDAFPEIPVQARIGVISAYLLFQKLTDRIEATPTADLLRERIRVPLHIKLSTLARATMKGLSMSIYRKNSEGHHHHHH” it is “soluble”. The entry for “MSLKSGTLRVWLFQEVNNKPKEKVVDAALADFEKAHADTKVTVEYIPVETRAQRIKAAFNDPKSAPDVVEFGNTDTAGYVKDGGLADISEEFAAWDEAKDADSTARQSVTVDGKVYGAPYFVGVRALYYRTDVFDELGLKAPRTLAELASTAKRVRAAKPDLYGLAVGGAYTYGAMPFIWANGGDIATGKGGSYASAIDSAAAQKGIKAYTSLFGDANCPAAKCAGMTGNDTVTAFASGKAAMAIGGDFSHQAMEAGAVKGKYAVVPLPGVEPGSIAPAFAGGNNIGVLKSTSHRTLAVDLMKRLASKKAQGELFDAMGFLPTFTDVRQQVAAREPFVKPFVDTLAAGTKFVPASPAWATIDSSLVLPTMFQEVVSGKKDVGAAAGDAARKMDDAFGSAGEGHHHHHH” is “soluble”.

For “MSLKTFTLPASVLFCFLLLIQGLGAAPPGRPDVFPPPLSSEHNGQVAEDAVSRPKDDGVPEVRAARNPEPQDQGELFQGVDPRALASVLLQALDRPASPPSVPGGSQQGTPEEAAEALMTESVRSQTHSLPAPEIQAPAVAPPRPQTQDRDPEEDDRSEEMEALASLLQELRDFSPSNAKRQQETAAAETETRTHTLTRVNLESPGPERVWRASWGEFQARVPERAPLPPPVPSQFQARMSESAPLPETHQFGEGVSSPKTHLGETLTPLSKAYQSLGGPFPKVRRLEGSFLGGSEAGERLLQQGLAQVEAGRRQAEATRQAAAQEERLADLASDLLLQYLLQGGARQRDLGGRELQETQQERENEREEEAEQERRGGGEDDVGEEDEEAAEAEAEAEEAERARQNALLFAEEEDGEAGAEDKRSQEEAPGHRRKDAEGAEEGGEEDDDDEEMDPQTIDSLIELSTKLHLPADDVVSIIEEVEEKRKRKKNAPPEPVPPPRAAPAPTHVRSPQPPPPAPARDELPDWNEVLPPWDREEDEVFPPGPYHPFPNYIRPRTLQPPASSRRRHFHHALPPARHHPDLEAQARRAQEEADAEERRLQEQEEMENYIEHVLLHRPEGHHHHHH”, the “soluble on expression in E. coli” value was “soluble”. As for “MSLKTRYVLSCLLLGSALSVSAQKMAVKSNLLSAANGALNAGVEYAFGPKSTFDLSGSIRPWKRTEGYVNKYWLIQPEYRYWTCQKFNGSFWGAYLNGAQFNVGGKKMPFGLFPWLKEHRYAGWLTGGGISYGYHIMLNRHWNIEVSVGVGYEYIDYKKYKCPDVCAELLEKGHYHYFGPSKASLSIVYIFNEGHHHHHH”, the entry is “not soluble”; as for “MSLKVIDFRFRPNTPEIISGIANSNMFRAACKAIGFEKRQPQPLEQIVEDLDKRGVVLSVISGRDSETTYGSPANNGSVLAFCRAYPERFIGFWGLDPHKGMAAVRELRHAVNELGMRGASIDPYLAHLRPDDARYYPIYAACCDLNVPVFITTAPPPQVAGAVMDYTDPRHVDIVARDFPELRIVMSHGGYPFVNEAIFACLRNANVYMDCSEYEQAPMAEAYIQAMNGIIQDKVVFASAHPFIEQADALEVYARMPLSDEARHKVMYANACKVLGIEGHHHHHH”, “soluble”; as for “MSLKVQGYANVVTLPNVTGRVIIVGDIHGCRAQLEDLLRAVSFKQGSDTLVAVGDLVNKGPDSFGVVRLLKRLGAYSVLGNHDAKLLKLVKKLGKKECLKGRDAKSSLAPLAQSIPTDVETYLSQLPHIIRIPAHNVMVAHAGLHPQRPVDRQYEDEVTTMRNLIEKEQEATGGVTLTATEETNDGGKPWASMWRGPETVVFGHDARRGLQEQYKPLAIGLDSRCVYGGRLSAAVFPGGCIISVPGWNGASAAAEGHHHHHH”, “soluble”.

Values taken from the DeepSol protein solubility set.
